Test results from US20110300138A1 (published 2011).

B1: K1-70 IgG (antibody, V domains shown)
VH: EVQLVQSGAEVKKPGQSLKISCKASGYSLTDNWIGWVRQKPGKGLEWMGIIYPGDSDTRYSPSFQGQVTISADKSINTAYLQWSSLKASDTAIYYCVGLDWNYNPLRYWGPGTLVTVSS
VL: QSVLTQPPSVSAAPGQKVTISCSGSSSDIGSNYVSWYQQFPGTAPKLLIYDNNKRPSAIPDRFSGSKSGTSATLGITGLQTGDEADYYCGTWDSRLGIAVFGGGTQLTVLG
notes: Human IgG1 lambda purified from hetero-hybridoma supernatant
B2: K1-18 IgG (antibody, V domains shown)
VH: EVQLVQSGAEVKKPGESLKISCKGSGYSFTNYWIGWVRQMPGKGLEWMGIIYPYDSDTRYSPSFEGQVTISADKSIRTAYLHWSSLKASDTAMYYCVRPRDGSYPYDAFDIWGQGTMVTVSS
VL: EIVLTQSPGTLSLSPGERATLSCRASQSVSNNYLAWYQQKPGQAPRLLIYGASSRATGIPDRFSGSGSGTDFTLTISRLEPEDFAVYYCQHCGSSLRAFGQGTKVEIKR
notes: Human IgG1 kappa purified from hetero-hybridoma supernatant; it is not part of the secreted protein; also called human monoclonal TSHR autoantibody K1-18 (stimulating)
B3: K1-18 Fab (Fab, V domains shown)
VH: B2 VH
VL: B2 VL

target: T1, thyroid stimulating hormone receptor (full length human TSHR) (human, UniProt P16473 22-764); assay: competitor ^125I-K1-70 IgG, TSHR coated tubes; 30 µg/mL in HBD
T1 construct: Full length TSHR coated onto plastic tubes (TSHR coated tubes, as in WO2004/050708A2); also called TSH receptor
Procedure: (§1) Binding inhibition assays were carried out using TSHR coated tubes as described in WO2004/050708A2. […] After aspiration, the tubes were washed and 100 μL of ¹²⁵I-labelled protein (5×10⁴ cpm) added and incubated for 1 hour at room temperature with shaking. The tubes were then aspirated, washed and counted in a gamma counter. Inhibition of labelled protein binding was calculated as 100×[1−(cpm bound in the presence of test material/cpm bound in the presence of control material)].

Binder | Inhibition of binding (%)
B1 | 94.3%
B2 | 92.2%
B3 | 83.2%

target: T1, thyroid stimulating hormone receptor …; assay: competitor ^125I-K1-70 IgG, TSHR coated tubes; 100 µg/mL in HBD
Procedure: as §1

Binder | Inhibition of binding (%)
B1 | 93.6%
B2 | 93.5%
B3 | 83.6%

target: T1, thyroid stimulating hormone receptor …; assay: competitor ^125I-K1-70 IgG, TSHR coated tubes; 0.01 µg/mL in assay buffer
Procedure: as §1

Binder | Inhibition of binding (%)
B1 | 50.9%
B2 | 30.2%
B3 | 23.7%

target: T1, thyroid stimulating hormone receptor …; assay: competitor ^125I-K1-70 IgG, TSHR coated tubes; 3 µg/mL in HBD
Procedure: as §1

Binder | Inhibition of binding (%)
B1 | 91.7%
B2 | 91%
B3 | 80.5%

target: T1, thyroid stimulating hormone receptor …; assay: competitor ^125I-K1-70 IgG, TSHR coated tubes; 0.003 µg/mL in HBD
Procedure: as §1

Binder | Inhibition of binding (%)
B1 | 2.2%
B2 | -2.7%
B3 | -3.5%

target: T1, thyroid stimulating hormone receptor …; assay: competitor ^125I-K1-70 IgG, TSHR coated tubes; 30 µg/mL in assay buffer
Procedure: as §1

Binder | Inhibition of binding (%)
B1 | 93.1%
B2 | 91.2%
B3 | 83.3%

target: T1, thyroid stimulating hormone receptor …; assay: competitor ^125I-K1-70 IgG, TSHR coated tubes; 10 µg/mL in assay buffer
Procedure: as §1

Binder | Inhibition of binding (%)
B1 | 92.3%
B2 | 91.8%
B3 | 81.9%

target: T1, thyroid stimulating hormone receptor …; assay: competitor ^125I-K1-70 IgG, TSHR coated tubes; 3 µg/mL in assay buffer
Procedure: as §1

Binder | Inhibition of binding (%)
B1 | 90.7%
B2 | 90.5%
B3 | 79.4%

target: T1, thyroid stimulating hormone receptor …; assay: competitor ^125I-K1-70 IgG, TSHR coated tubes; 0.003 µg/mL in assay buffer
Procedure: as §1

Binder | Inhibition of binding (%)
B1 | 24%
B2 | 17%
B3 | 15.2%

target: T1, thyroid stimulating hormone receptor …; assay: competitor ^125I-K1-70 IgG, TSHR coated tubes; 1 µg/mL in HBD
Procedure: as §1

Binder | Inhibition of binding (%)
B1 | 90.4%
B2 | 85.8%
B3 | 75.6%

target: T1, thyroid stimulating hormone receptor …; assay: competitor ^125I-K1-70 IgG, TSHR coated tubes; 0.03 µg/mL in assay buffer
Procedure: as §1

Binder | Inhibition of binding (%)
B1 | 74.2%
B2 | 53.9%
B3 | 31.3%

target: T1, thyroid stimulating hormone receptor …; assay: competitor ^125I-K1-70 IgG, TSHR coated tubes; 10 µg/mL in HBD
Procedure: as §1

Binder | Inhibition of binding (%)
B1 | 93.1%
B2 | 92.5%
B3 | 82%

target: T1, thyroid stimulating hormone receptor …; assay: competitor ^125I-K1-70 IgG, TSHR coated tubes; 0.001 µg/mL in HBD
Procedure: as §1

Binder | Inhibition of binding (%)
B1 | -7.6%
B2 | -3%
B3 | 0.5%

target: T1, thyroid stimulating hormone receptor …; assay: competitor ^125I-K1-70 IgG, TSHR coated tubes; 0.01 µg/mL in HBD
Procedure: as §1

Binder | Inhibition of binding (%)
B1 | 11.4%
B2 | 3.1%
B3 | 1.1%

target: T1, thyroid stimulating hormone receptor …; assay: competitor ^125I-K1-70 IgG, TSHR coated tubes; 0.1 µg/mL in HBD
Procedure: as §1

Binder | Inhibition of binding (%)
B1 | 62.8%
B2 | 48.6%
B3 | 38.4%

target: T1, thyroid stimulating hormone receptor …; assay: competitor ^125I-K1-70 IgG, TSHR coated tubes; 0.001 µg/mL in assay buffer
Procedure: as §1

Binder | Inhibition of binding (%)
B1 | 15.3%
B2 | 7.2%
B3 | 13.8%

target: T1, thyroid stimulating hormone receptor …; assay: competitor ^125I-K1-70 IgG, TSHR coated tubes; 0.3 µg/mL in assay buffer
Procedure: as §1

Binder | Inhibition of binding (%)
B1 | 89.2%
B2 | 86.4%
B3 | 71.4%

target: T1, thyroid stimulating hormone receptor …; assay: competitor ^125I-K1-70 IgG, TSHR coated tubes; 0.3 µg/mL in HBD
Procedure: as §1

Binder | Inhibition of binding (%)
B1 | 82.7%
B2 | 73.9%
B3 | 60.9%

target: T1, thyroid stimulating hormone receptor …; assay: competitor ^125I-K1-70 IgG, TSHR coated tubes; 1 µg/mL in assay buffer
Procedure: as §1

Binder | Inhibition of binding (%)
B1 | 90.8%
B2 | 89.6%
B3 | 78.5%

target: T1, thyroid stimulating hormone receptor …; assay: competitor ^125I-K1-70 IgG, TSHR coated tubes; 0.03 µg/mL in HBD
Procedure: as §1

Binder | Inhibition of binding (%)
B1 | 33.6%
B2 | 20%
B3 | 10.2%

target: T1, thyroid stimulating hormone receptor …; assay: competitor ^125I-K1-70 IgG, TSHR coated tubes; 100 µg/mL in assay buffer
Procedure: as §1

Binder | Inhibition of binding (%)
B1 | 93.8%
B2 | 92.9%
B3 | 86%

target: T1, thyroid stimulating hormone receptor …; assay: competitor ^125I-K1-70 IgG, TSHR coated tubes; 0.1 µg/mL in assay buffer
Procedure: as §1

Binder | Inhibition of binding (%)
B1 | 87.1%
B2 | 77.9%
B3 | 62.8%
